{"source": "FireProtDB (doi:10.1021/bi00014a029)", "settings": "Meleagris gallopavo, Thermal, Potassium phosphate/Potassium acetate 10 mM/10 mM/", "key": {"[1]": {"settings": "pH 1.5, CD, reversible: yes (82%)"}, "[2]": {"settings": "pH 1.99, DSC, reversible: yes (91%)"}, "[3]": {"settings": "pH 2.1, CD, reversible: yes (89%)"}, "[4]": {"settings": "pH 2.5, CD, reversible: yes (85%)"}, "[5]": {"settings": "pH 2.52, DSC, reversible: yes (90%)"}, "[6]": {"settings": "pH 2.56, DSC, reversible: yes (78%)"}, "[7]": {"settings": "pH 3.46, DSC, reversible: yes (90%)"}, "[8]": {"settings": "pH 3.48, DSC, reversible: yes (81%)"}, "[9]": {"settings": "pH 3.94, DSC, reversible: yes (87%)"}, "[10]": {"settings": "pH 4.51, DSC, reversible: yes (84%)"}, "[11]": {"settings": "pH 4.96, DSC, reversible: yes (100%)"}}, "data": [{"substance": "Ovomucoid wild type, P68390", "values": [{"measurement": "Tm", "setting": "[1]", "value": 60.5, "unit": "°C"}, {"measurement": "unfolding enthalpy (van 't Hoff)", "setting": "[1]", "value": 40.9, "unit": "kcal/mol"}, {"measurement": "Tm", "setting": "[2]", "value": 63.1, "unit": "°C"}, {"measurement": "unfolding enthalpy (calorimetric)", "setting": "[2]", "value": 44.2, "unit": "kcal/mol"}, {"measurement": "unfolding enthalpy (van 't Hoff)", "setting": "[2]", "value": 44.6, "unit": "kcal/mol"}, {"measurement": "Tm", "setting": "[3]", "value": 62.7, "unit": "°C"}, {"measurement": "unfolding enthalpy (van 't Hoff)", "setting": "[3]", "value": 42.8, "unit": "kcal/mol"}, {"measurement": "Tm", "setting": "[4]", "value": 66.2, "unit": "°C"}, {"measurement": "unfolding enthalpy (van 't Hoff)", "setting": "[4]", "value": 43.7, "unit": "kcal/mol"}, {"measurement": "Tm", "setting": "[5]", "value": 68.5, "unit": "°C"}, {"measurement": "unfolding enthalpy (calorimetric)", "setting": "[5]", "value": 47.7, "unit": "kcal/mol"}, {"measurement": "unfolding enthalpy (van 't Hoff)", "setting": "[5]", "value": 49.2, "unit": "kcal/mol"}, {"measurement": "Tm", "setting": "[6]", "value": 65.7, "unit": "°C"}, {"measurement": "unfolding enthalpy (calorimetric)", "setting": "[6]", "value": 45.4, "unit": "kcal/mol"}, {"measurement": "unfolding enthalpy (van 't Hoff)", "setting": "[6]", "value": 45.4, "unit": "kcal/mol"}, {"measurement": "Tm", "setting": "[7]", "value": 78.7, "unit": "°C"}, {"measurement": "unfolding enthalpy (calorimetric)", "setting": "[7]", "value": 48.1, "unit": "kcal/mol"}, {"measurement": "unfolding enthalpy (van 't Hoff)", "setting": "[7]", "value": 49.6, "unit": "kcal/mol"}, {"measurement": "Tm", "setting": "[8]", "value": 78.7, "unit": "°C"}, {"measurement": "unfolding enthalpy (calorimetric)", "setting": "[8]", "value": 50, "unit": "kcal/mol"}, {"measurement": "unfolding enthalpy (van 't Hoff)", "setting": "[8]", "value": 51, "unit": "kcal/mol"}, {"measurement": "Tm", "setting": "pH 3.51, DSC", "value": 80.8, "unit": "°C"}, {"measurement": "unfolding enthalpy (calorimetric)", "setting": "pH 3.51, DSC", "value": 55, "unit": "kcal/mol"}, {"measurement": "unfolding enthalpy (van 't Hoff)", "setting": "pH 3.51, DSC", "value": 57.9, "unit": "kcal/mol"}, {"measurement": "Tm", "setting": "[9]", "value": 85.7, "unit": "°C"}, {"measurement": "unfolding enthalpy (calorimetric)", "setting": "[9]", "value": 55.3, "unit": "kcal/mol"}, {"measurement": "unfolding enthalpy (van 't Hoff)", "setting": "[9]", "value": 52.7, "unit": "kcal/mol"}, {"measurement": "Tm", "setting": "[10]", "value": 85.2, "unit": "°C"}, {"measurement": "unfolding enthalpy (calorimetric)", "setting": "[10]", "value": 57.4, "unit": "kcal/mol"}, {"measurement": "unfolding enthalpy (van 't Hoff)", "setting": "[10]", "value": 56.3, "unit": "kcal/mol"}, {"measurement": "Tm", "setting": "[11]", "value": 87.8, "unit": "°C"}, {"measurement": "unfolding enthalpy (calorimetric)", "setting": "[11]", "value": 62.4, "unit": "kcal/mol"}]}]}
